Test results: patent US10314894B2, “Treatment of cardio-renal disease using PCSK6” (THE CLEVELAND CLINIC FOUNDATION, priority 2014, dated 2019)
Where a chain is given by its changes, count along the chain named.

Key:
[1] = target: T1, corin mutant K317E (Homo sapiens, UniProt Q9Y5Q5, K317E); experiment: PCSK6-mediated corin activation in HEK293 cells, corin mutant K317E; assay type: cell-based; settings: Western, densitometry
T1 construct: expressed in transfected cells; host or cells: HEK293
T1 sequence (Q9Y5Q5 1-1042 K317E): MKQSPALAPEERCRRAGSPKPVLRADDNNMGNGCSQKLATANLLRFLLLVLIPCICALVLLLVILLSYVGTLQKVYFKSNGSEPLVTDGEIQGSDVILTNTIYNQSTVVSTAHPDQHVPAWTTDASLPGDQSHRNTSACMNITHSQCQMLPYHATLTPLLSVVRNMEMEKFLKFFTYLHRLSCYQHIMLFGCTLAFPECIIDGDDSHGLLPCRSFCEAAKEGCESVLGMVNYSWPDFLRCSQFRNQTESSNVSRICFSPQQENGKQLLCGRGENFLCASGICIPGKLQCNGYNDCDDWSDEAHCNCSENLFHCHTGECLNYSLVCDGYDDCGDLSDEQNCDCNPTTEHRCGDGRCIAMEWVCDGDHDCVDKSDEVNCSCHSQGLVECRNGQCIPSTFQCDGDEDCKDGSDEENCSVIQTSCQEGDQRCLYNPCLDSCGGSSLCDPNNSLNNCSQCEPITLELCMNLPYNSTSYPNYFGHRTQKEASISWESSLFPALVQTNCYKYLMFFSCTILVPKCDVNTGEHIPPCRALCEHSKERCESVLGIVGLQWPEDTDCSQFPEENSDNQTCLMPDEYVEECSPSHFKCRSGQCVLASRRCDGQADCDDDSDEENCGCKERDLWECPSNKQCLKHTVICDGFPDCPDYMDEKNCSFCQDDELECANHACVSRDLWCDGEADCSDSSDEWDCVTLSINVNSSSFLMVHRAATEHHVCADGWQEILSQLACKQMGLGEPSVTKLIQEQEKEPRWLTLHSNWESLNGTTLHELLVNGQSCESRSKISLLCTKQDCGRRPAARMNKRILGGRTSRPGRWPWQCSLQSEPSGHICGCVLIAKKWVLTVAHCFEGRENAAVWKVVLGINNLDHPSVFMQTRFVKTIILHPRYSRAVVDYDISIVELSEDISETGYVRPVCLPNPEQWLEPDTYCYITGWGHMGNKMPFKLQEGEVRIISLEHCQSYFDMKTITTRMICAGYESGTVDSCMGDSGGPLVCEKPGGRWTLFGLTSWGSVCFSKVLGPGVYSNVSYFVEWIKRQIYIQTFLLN
Description: (§1) Plasmids expressing human corin WT and mutants R801A, S985A, T555I, Q568P, T555I/Q568P, K317E, S472G and R539C were reported previously. Dong, N. et al., J Biol Chem 289, 17909-17916 (2014); Knappe et al., J Biol Chem 278, 52363-52370 (2003); Wu et al., J Biol Chem 277, 16900-16905. (2002). Plasmids expressing human PCSK1-9 were made by cloning respective cDNAs into pcNDA3.1 vector. Recombinant corin and PCSK proteins encoded by these plasmids contained a C-terminal V5 or flag tag for protein detection in Western blotting.
HEK293 and HL-1 cells were transfected with corin or PCSK6 expression plasmids. After 48-72 h, cells were lysed in a buffer containing 25 mM Tris-HCl, pH 7.4, 150 mM NaCl, 1 mM EDTA, 1% (v/v) NP-40, and 1% (v/v) protease inhibitor cocktail. Recombinant corin and PCSK6 proteins were immunoprecipitated with an anti-V5 or anti-flag antibody. Western blotting was carried out to analyze corin expression and activation or PCSK6 expression with or without reducing agents. Percentage of corin activation (corin-p vs. corin fragments) was quantified by densitometric analysis of Western blots.

[2] = target: T2, recombinant human corin (Homo sapiens, UniProt Q9Y5Q5); experiment: PCSK1-9 plasmids transfected in HEK293 cells expressing recombinant human corin (Western analysis); assay type: cell-based; settings: plasmid transfected
T2 construct: expressed in transfected cells; host or cells: HEK293
T2 sequence (Q9Y5Q5 1-1042): T1 sequence (Q9Y5Q5 1-1042 K317E) with E317K
Description: The PCSK family has 9 members. PCSK1-9 plasmids were transfected in HEK293 cells expressing recombinant human corin. […] By RT-PCR, PCSK6 mRNA was detected in HEK293 and HL-1 cells and in mouse and human hearts where corin is normally expressed. Yan et al., J Biol Chem 274, 14926-14935 (1999). The results were consistent with previous reports of PCSK6 expression in atrial and ventricular cardiomyocytes. Beaubien et al., Cell Tissue Res 279, 539-549 (1995).
as §1
HEK293 and HL-1 cells were transfected with corin or PCSK6 expression plasmids. After 48-72 h, cells were lysed in a buffer containing 25 mM Tris-HCl, pH 7.4, 150 mM NaCl, 1 mM EDTA, 1% (v/v) NP-40, and 1% (v/v) protease inhibitor cocktail. […] Percentage of corin activation (corin-p vs. corin fragments) was quantified by densitometric analysis of Western blots.

B1: proprotein convertase subtilisin/kexin-6 (protein, listed as Homo sapiens)
chain: MPPRAPPAPGPRPPPRAAAATDTAAGAGGAGGAGGAGGPGFRPLAPRPWRWLLLLALPAACSAPPPRPVYTNHWAVQVLGGPAEADRVAAAHGYLNLGQIGNLEDYYHFYHSKTFKRSTLSSRGPHTFLRMDPQVKWLQQQEVKRRVKRQVRSDPQALYFNDPIWSNMWYLHCGDKNSRCRSEMNVQAAWKRGYTGKNVVVTILDDGIERNHPDLAPNYDSYASYDVNGNDYDPSPRYDASNENKHGTRCAGEVAASANNSYCIVGIAYNAKIGGIRMLDGDVTDVVEAKSLGIRPNYIDIYSASWGPDDDGKTVDGPGRLAKQAFEYGIKKGRQGLGSIFVWASGNGGREGDYCSCDGYTNSIYTISVSSATENGYKPWYLEECASTLATTYSSGAFYERKIVTTDLRQRCTDGHTGTSVSAPMVAGIIALALEANSQLTWRDVQHLLVKTSRPAHLKASDWKVNGAGHKVSHFYGFGLVDAEALVVEAKKWTAVPSQHMCVAASDKRPRSIPLVQVLRTTALTSACAEHSDQRVVYLEHVVVRTSISHPRRGDLQIYLVSPSGTKSQLLAKRLLDLSNEGFTNWEFMTVHCWGEKAEGQWTLEIQDLPSQVRNPEKQGKLKEWSLILYGTAEHPYHTFSAHQSRSRMLELSAPELEPPKAALSPSQVEVPEDEEDYTAQSTPGSANILQTSVCHPECGDKGCDGPNADQCLNCVHFSLGSVKTSRKCVSVCPLGYFGDTAARRCRRCHKGCETCSSRAATQCLSCRRGFYHHQEMNTCVTLCPAGFYADESQKNCLKCHPSCKKCVDEPEKCTVCKEGFSLARGSCIPDCEPGTYFDSELIRCGECHHTCGTCVGPGREECIHCAKNFHFHDWKCVPACGEGFYPEEMPGLPHKVCRRCDENCLSCAGSSRNCSRCKTGFTQLGTSCITNHTCSNADETFCEMVKSNRLCERKLFIQFCCRTCLLAG
modifications: C-terminal FLAG tag
reduction in PCSK6-mediated corin activation compared with WT corin [1]: 39%
corin activation on PCSK overexpression (loss of corin zymogen band) [2]: enhanced corin activation
